Results from PMC10916398.

Experiments:
HUβ = molecular target: T1, HUβ (UniProt P0ACF4); assay: EMSA
T1 sequence: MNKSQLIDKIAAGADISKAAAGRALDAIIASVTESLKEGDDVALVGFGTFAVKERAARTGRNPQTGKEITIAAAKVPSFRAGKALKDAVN

HUα = molecular target: T2, HUα (UniProt P0ACF0); assay: EMSA
T2 sequence: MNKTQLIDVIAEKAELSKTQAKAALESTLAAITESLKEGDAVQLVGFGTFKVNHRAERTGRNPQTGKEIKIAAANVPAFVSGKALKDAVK

Question: Which results are given for “GGCAGTCGTTGATAGTGGATGGCGGCTTTATGTTGGCGAATCCACAGTTCAACCCAGAATAGCGCAGTGAGGTGCGTGGATATTTCATTGGGGCTGAATTTACAATCCAAGTGCAACAAAAAAAGAAGTACTCATCAACTAGAATATAATTTTGTTTCCACACAAAAACCATTTCCAAATGATGAGTACTTCCTACCGACATCTTACAATAAACGAGCGAGAAAAGATAATGATTTTACTCGCACAGGGC (double strand) [IRL-FAM-Long (ISApl1 promoter)]”?
Answer: binding (HUβ): binds; binding (HUα): binds

Question: Which binding (HUβ) does the source give for “CCCATACTGAATATACACTTGAGAGTATTTATAATTTGTATCTTGAATTGTCAAACCAAGTGCAACGATTTTTTGAAGTAAACTTCATAAGGTGTTTTCCAACCTAAACATTTACGTGGTCGTAAATTCAGTTT (double strand) [IRR-FAM-Long]” here?
Answer: binds

Question: And the binding (HUα)?
Answer: binds

Question: With “CTTGAATTGTCAAACCAAGTGCAACGATTTTTTGAAGTAAACTTCATAAGGTGTTTTCCAACCTAAACATTTACGTGGTCGTAAATTCAGTTT (double strand) [IRR-FAM-WT]” as the sequence, how does the binding (HUβ) read?
Answer: binds

Question: What about the binding (HUα) of the same sequence?
Answer: binds

Question: For “AAACTGAATTTACGACCACGTAAATGTTTAGGTTGGAAAACACCTTATGAAGTTTACTTCAAAAAA (double strand) [IRR-FAM-NO-IRR]”, which binding signal (HUβ) is on record?
Answer: binds more weakly

Question: What about the binding signal (HUα) of the same sequence?
Answer: binds more weakly
